Common to all, as to assay: ITC
In assay [1] the target is EF-Tu methyltransferase EftM from P. aeruginosa strain PAHM4 (EftM^HM4), wild-type (Pseudomonas aeruginosa strain PAHM4).
The target is the same in assay [2]. This is another data set of the same source.
Assay [3] addresses EftM^HM4 W170F (Pseudomonas aeruginosa strain PAHM4).
In assay [4] the target is EftM^HM4 W196F (Pseudomonas aeruginosa strain PAHM4).

Read-outs that look alike come from different tables or passages of the source. Bounds are passed on as bounds.

As to “translation elongation factor EF-Tu of P. aeruginosa PAO1 (tufB), wild-type (from UniProt P09591 1-397) (natural protein)”, the Kd in assay [1] was found to be 27 µM; in assay [2], 28 µM. Also, the fold decrease of dH against wild-type EftM^HM4 in assay [3] and in assay [4] was over 10 fold in each case.

By Kd is commonly meant the equilibrium constant for the complex coming apart. A higher Kd goes with a looser complex.

These data come from doi:10.1101/773556.
